The supplement of paper PMC10201428
± gives the standard deviation of the averaged measurements.

tested on: VchCAST RNA-guided transposition machinery (E. coli BL21(DE3) host, lacZ target); assay: relative integration efficiency (T-RL orientation) vs wild-type transposon end (log2 (normalized fold change)); transposon end mutated: right end (5 bp flank + 75 bp right end); higher = more efficient transposition
Procedure: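 Pooled, barcoded VchCAST (Tn6677) mini-transposon donor libraries; each variable transposon-end sequence sits in a fixed pDonor mini-transposon context (10-bp barcode and cargo not included). Left- or right-end libraries were co-transformed with pEffector (TniQ-Cascade, TnsABC, lacZ crRNA, T7, 0.1 mM IPTG) into E. coli BL21(DE3) and grown 18 h at 37 C. T-LR and T-RL junction amplicons were sequenced; output/input barcode fold change was normalised to the mean of four wild-type barcodes and log2-transformed. Two biological replicates; zero-count/undetected variants carry floor values (-10 / -15), censored here. Barcode uncoupling by PCR recombination adds noise.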

Sequence	relative integration efficiency (log2)
ACAAAACTTGATACAACCATAAAATGATAATTACACCCATAAATTGATAATTATCACACCCATAAATTGATATTGCCTCTGATCATAGTCAGACCAACATTGCTACGACCCGTATTCGCACCGACAC	-6.59 ± 0.45
ACAGGGTTTGATACAACCATAAAATGATAATTACACCCATAAATTGATAATTATCACACCCATAAATTGATATTGCCTCTGATCATAGTCAGACCAACATTGCTACGACCCGTATTCGCACCGACAC	-7.26 ± 0.17
ACATAACATGATACAACCATAAAATGATAATTACACCCATAAATTGATAATTATCACACCCATAAATTGATATTGCCTCTGATCATAGTCAGACCAACATTGCTACGACCCGTATTCGCACCGACAC	-5.71 ± 0.74
ACATGGTGTGATACAACCATAAAATGATAATTACACCCATAAATTGATAATTATCACACCCATAAATTGATATTGCCTCTGATCATAGTCAGACCAACATTGCTACGACCCGTATTCGCACCGACAC	-6.87 ± 0.18
ACATTACTTGATACAACCATAAAATGATAATTACACCCATAAATTGATAATTATCACACCCATAAATTGATATTGCCTCTGATCATAGTCAGACCAACATTGCTACGACCCGTATTCGCACCGACAC	-6.45 ± 0.27
ACATTAGTCGATACAACCATAAAATGATAATTACACCCATAAATTCATAATTATCACACCCAATTTAACTATAACGCTCTGATCATAGTCAGACCAACATTGCTACGACCCGTATTCGCACCGACAC	-7.36 ± 0.82
ACATTAGTGGATACAACCATAAAATGATAATTACACCCATAAATGGATCATTATCACACCCAATTTAACTATAACGCTCTGATCATAGTCAGACCAACATTGCTACGACCCGTATTCGCACCGACAC	-6.91 ± 0.47
ACATTAGTTCATACAACCATAAAATGATAATTACACCCATAAATTCATAATTATCACACCCAATTTAACTATAACGCTCTGATCATAGTCAGACCAACATTGCTACGACCCGTATTCGCACCGACAC	-6.79 ± 0.48
ACATTAGTTCATACAACCATAAAATGATAATTACACCCATAAATTGATAATTATCACACCCAATTTAACTATAACGCTCTGATCATAGTCAGACCAACATTGCTACGACCCGTATTCGCACCGACAC	-7.98 ± 0.089
ACATTAGTTCATACAACCATAAAATGATAATTACACCCATAAATTGATCATTATCACACCCAATTTAACTATAACGCTCTGATCATAGTCAGACCAACATTGCTACGACCCGTATTCGCACCGACAC	-7.24 ± 0.69
ACATTGGTCGATACAACCATAAAATGATAATTACACCCATAAATGGATAATTATCACACCCAATTTAACTATAACGCTCTGATCATAGTCAGACCAACATTGCTACGACCCGTATTCGCACCGACAC	-7.16 ± 0.89
ACATTGGTCGATACAACCATAAAATGATAATTACACCCATAAATGGATCATTATCACACCCAATTTAACTATAACGCTCTGATCATAGTCAGACCAACATTGCTACGACCCGTATTCGCACCGACAC	-7.2 ± 0.28
ACATTGGTGGATACAACCATAAAATGATAATTACACCCATAAATTGATAATTATCACACCCAATTTAACTATAACGCTCTGATCATAGTCAGACCAACATTGCTACGACCCGTATTCGCACCGACAC	-6.88 ± 0.39
ACATTGGTTCATACAACCATAAAATGATAATTACACCCATAAATGGATCATTATCACACCCAATTTAACTATAACGCTCTGATCATAGTCAGACCAACATTGCTACGACCCGTATTCGCACCGACAC	-7.4 ± 0.26
ACATTGGTTCATACAACCATAAAATGATAATTACACCCATAAATTGATCATTATCACACCCAATTTAACTATAACGCTCTGATCATAGTCAGACCAACATTGCTACGACCCGTATTCGCACCGACAC	-7.14 ± 0.11
ACATTGTGGGATACAACCATAAAATGATAATTACACCCATAAATTGATAATTATCACACCCATAAATTGATATTGCCTCTGATCATAGTCAGACCAACATTGCTACGACCCGTATTCGCACCGACAC	-5.61 ± 0.22
ACATTTCAACATACAACCATAAAATGATAATTACACCCATAAATTGATAATTATCACACCCATAAATTGATATTGCCTCTGATCATAGTCAGACCAACATTGCTACGACCCGTATTCGCACCGACAC	-6.21 ± 0.12
ACATTTGAACTTACAACCATAAAATGATAATTACACCCATAAATTGATAATTATCACACCCATAAATTGATATTGCCTCTGATCATAGTCAGACCAACATTGCTACGACCCGTATTCGCACCGACAC	-5.07 ± 0.78
ACATTTGTAAAAAAAACCATACGTTGATTTTACGAAACCATACGCTGAAATAAAAACAACCATACCTTGAAATTGCTTATGATCATAGTCAGACCAACATTGCTACGACCCGTATTCGCACCGACAC	-8.13 ± 1.3
ACATTTGTAAAAAAAACCATACGTTGATTTTACGAAACCATACGCTGAAATAATCACAACCATAAATTGATATTGCCTCTGATCATAGTCAGACCAACATTGCTACGACCCGTATTCGCACCGACAC	-6.87 ± 0.53
ACATTTGTAAAAAAAACCATACGTTGATTTTACGAAACCATACGCTGAAATAATCACAACCATACCTTGAAATTGCCTCTGATCATAGTCAGACCAACATTGCTACGACCCGTATTCGCACCGACAC	-7.16 ± 0.43

Sequence	relative integration efficiency (log2)
ACATTTGTAAAAAAAACCATACGTTGATTTTACGAAACCATACGCTGAAATAATCACACCCATAAATTGAAATTGCCTCTGATCATAGTCAGACCAACATTGCTACGACCCGTATTCGCACCGACAC	-5.81 ± 0.093
ACATTTGTAAAAAAAACCATACGTTGATTTTACGAAACCATACGCTGAAATAATCACACCCATAAATTGATATTGCCTCTGATCATAGTCAGACCAACATTGCTACGACCCGTATTCGCACCGACAC	-7.11 ± 0.15
ACATTTGTTAATAAAACCATACGTTGATTTTACGAAACCATACGCTGAAATAATCACACCCATAAATTGATATTGCCTCTGATCATAGTCAGACCAACATTGCTACGACCCGTATTCGCACCGACAC	-6.57 ± 0.26
ACATTTGTTCAACCATAAAATGATAATTACACCCATAAATTGATAATTATCACACCCATAAATTGATATTGCCTCTGATCATAGTCAGACCAACATTGCTACGACCCGTATTCGCACCGACACTGAC	-7.3 ± 0.12
ACATTTGTTCATACAACCCTAAAATGATAATTACACCCATAAATTCATAATTATCACCCCCAATTTAACTATAACGCTCTGATCATAGTCAGACCAACATTGCTACGACCCGTATTCGCACCGACAC	-5.3 ± 0.43
ACATTTGTTGAAAAAACCATACGTTGATTTTACGAAACCATACGCTGAAATAATCACACCCATAAATTGATATTGCCTCTGATCATAGTCAGACCAACATTGCTACGACCCGTATTCGCACCGACAC	-6.48 ± 0.15
ACATTTGTTGATAACCAACGCCCCGTCGCCGGCACAAACGCCCGGTCGCCGGCGACACAAACGCCCGGTCGCGGTAAGAGGATCATAGTCAGACCAACATTGCTACGACCCGTATTCGCACCGACAC	-6.24 ± 0.19
ACATTTGTTGATAACCAACGCCCCGTCGCCGGCCACCCATAAATTGATAATTATCACACCCATAAATTGATATTGCCTCTGATCATAGTCAGACCAACATTGCTACGACCCGTATTCGCACCGACAC	-7.56 ± 0.64
ACATTTGTTGATACAACACGCCCCGTCGCCGGCACAAACGCCCGGTCGCCGGCGACACAAACGCCCGGTCGCGGTAAGAGGATCATAGTCAGACCAACATTGCTACGACCCGTATTCGCACCGACAC	-6.42 ± 0.17
ACATTTGTTGATACAACCATAAAATGATAATTAATAATTATTTATAATCAGCAACACCCATAAATTGATAATTATCACACCCATAAATTGATATTGCCTCTGATCATAGTCAGACCAACATTGCTAC	-3.61 ± 0.38
ACATTTGTTGATACAACCATAAAATGATAATTAATAATTATTTATAATCAGCAACTTAACCACAAAACACCCATAAATTGATAATTAACAAAACACCCATAAATTGATATTGCTGTGAATCGAGTAT	-5.86 ± 0.28
ACATTTGTTGATACAACCATAAAATGATAATTAATAATTATTTATAATCAGCAACTTAACCACAAAACACCCATAAATTGATAATTAACAAACACCCATAAATTGATATTGCCTCTGATCATAGTCA	-5.35 ± 0.69
ACATTTGTTGATACAACCATAAAATGATAATTAATAATTATTTATAATCAGCAACTTAACCACAAAACACCCATAAATTGATAATTAACACACCCATAAATTGATATTGCCTCTGATCATAGTCAGA	-5.33 ± 0.24
ACATTTGTTGATACAACCATAAAATGATAATTAATAATTATTTATAATCAGCAACTTAACCACAAAACACCCATAAATTGATAATTATCACACCCATAAATTGATATTGCCTCTGATCATAGTCAGA	-4.6 ± 1
ACATTTGTTGATACAACCATAAACGTCGCCGGCACAAACGCCCGGTCGCCGGCGACACAAACGCCCGGTCGCGGTAAGAGGATCATAGTCAGACCAACATTGCTACGACCCGTATTCGCACCGACAC	-6.69 ± 0.61
ACATTTGTTGATACAACCATACCCGGATAATTACACCCATACCGGGATAATTATCACACCCATACCGGGATATTGCCTCTGATCATAGTCAGACCAACATTGCTACGACCCGTATTCGCACCGACAC	-6.7 ± 0.28
ACATTTGTTGATACAACCATACCCGTATAATTACACCCATACCGGTATAATTATCACACCCATACCGGTATATTGCCTCTGATCATAGTCAGACCAACATTGCTACGACCCGTATTCGCACCGACAC	-8.04 ± 1.3
ACATTTGTTGATACAACCATATTTACATAATTACACCCATATTAACATAATTATCACACCCATATTAACATATTGCCTCTGATCATAGTCAGACCAACATTGCTACGACCCGTATTCGCACCGACAC	-7.03 ± 0.43
ACATTTGTTGATACAACCATCCCCGTCGCCGGCACAAACGCCCGGTCGCCGGCGACACAAACGCCCGGTCGCGGTAAGAGGATCATAGTCAGACCAACATTGCTACGACCCGTATTCGCACCGACAC	-7.485 ± 0.063
ACATTTGTTGATACAACCCGCCCCGTCGCCGGCACAAACGCCCGGTCGCCGGCGACACAAACGCCCGGTCGCGGTAAGAGGATCATAGTCAGACCAACATTGCTACGACCCGTATTCGCACCGACAC	-8.51 ± 0.73
